# Measured values published in EP2644619A1 (Spiber Technologies AB, dated 2013).
# How the values were obtained:
# [1] = target: NT (wild type N-terminal fragment of Euprosthenops australis major spidroin 1) (Euprosthenops australis); test: tryptophan fluorescence, 5 uM protein, between pH 7 and pH 6; the filing uses it as a probe of dimerisation
# [2] = target: the molecule itself; test: comparative structural studies, pH lowered from 7 to 6 (self-association)
Binder,red-shift in fluorescence emission [1] [nm],binding result [2]
NT (wild type N-terminal fragment of Euprosthenops australis major spidroin 1) (protein) GSGNSHTTPWTNPGLAENFMNSFMQGLSSMPGFTASQLDDMSTIAQSMVQSIQSLAAQGRTSPNKLQALNMAFASSMAEIAASEEGGGSLSTKTSSIASAMSNAFLQTTGVVNQPFINEITQLVSMFAQAGMNDVSA,15,
"NT^A72R (other, also called mutated NT; mutant NT) GSGNSHTTPWTNPGLAENFMNSFMQGLSSMPGFTASQLDDMSTIAQSMVQSIQSLAAQGRTSPNKLQALNMRFASSMAEIAASEEGGGSLSTKTSSIASAMSNAFLQTTGVVNQPFINEITQLVSMFAQAGMNDVSA",,no binding
